# Molecular target: T1, PoxCxrA17-150 (Penicillium oxalicum HP7-1) (UniProt A0A2H4WV05)
# T1 sequence: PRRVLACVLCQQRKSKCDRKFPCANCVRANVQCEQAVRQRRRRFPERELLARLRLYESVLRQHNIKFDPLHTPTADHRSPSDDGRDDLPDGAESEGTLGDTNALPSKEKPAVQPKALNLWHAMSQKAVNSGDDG
# Assay: EMSA
# Conditions: EMSA: 20 mM Tris-HCl pH 8.0, 50 mM KCl, 0.1 mg/mL BSA, 5% glycerol, 1 mM DTT, 1 ug salmon sperm DNA, ~50 ng probe, 30 min at 30 C; footprinting at 30 C
row,Sequence,binding
1,AGGAGACGAACAAATGAAAAACAGTTGGCCAACAATTCAACCAAGACCGGCTTCCCTGGAATTGCGGGGAGGGGAGAGTCGTGAAAGTGGATAAGGCTCCTTAATTTTTTTTTTCCCTTCCTCCTGGCCATCGTGTTTTATGGAGGTTCGCTTCCGTCTTGACTATCCGCCGTCGCACTCTTAGTCTCCCCGTTGACCCTCTTTTTCTTCACATCGTCAGATCGTGATCGTTGATCGTTCGGTGCTCTTCTGCTTCTTTTGCTGCTCACCTCCTCCTCCCCCCAGCTGA (double strand) [PBM_PoxClrB-6'],binds
2,AGGAGACGAACAAATGAAAAACAGTTGGCCAACAATTCAACCAAGACCGGCTTCCCTGGAATTGCGGGGAGGGGAGAGTCGTGAAAGTGGATAAGGCTCCTTAATTTTTTTTTTCCCTTCCTCCTGGCCATCGTGTTTTATGGAGGTTCGCTTCCGTCTTGACTATCCGCCGTCGCACTCTTAGTCTCCCCGTTGACCCTCTTTTTCTTCACATCGTCAGATCGTGATCGTTGATCGTTCGGTGCTCTTCTGCTTCTTTTGCTGCTCACCTCCTCCTCCCCCCAGCTGAGTCCTT (double strand) [PoxClrB-295],binds
3,AGGATCTGATGAAAGGGGGGTGGTGGAGGAGATGAGGAAGGAATGGATGATGAACACCAGAGTCGAGGTGATGGCACCTCTTCTTATATAGTTGCTTCCTTGGGTGGATCCTGAAGCAATTCGCCTCTC (double strand) [PBM_POX05587-6'],binds
4,CCCCTTTCATCAGATCCTCAAAGAACAAAATTGATCATCATCTCTTTTGATCTTTGATCCAATCCATCACA (double strand) [PBM1 probe],binds
5,GACTCAGCTGGGGGGAGGAGGAGGTGAGCAGCAAAAGAAGCAGAAGAGCACCGAACGATCAACGATCACGATCTGACGATGTGAAGAAAAAGAGGGTCAACGGGGAGACTAAGAGTGCGACGGCGGATAGTCAAGACGGAAGCGAACCTCCATAAAACACGATGGCCAGGAGGAAGGGAAAAAAAAAATTAAGGAGCCTTATCCACTTTCACGACTCTCCCCTCCCCGCAATTCCAGGGAAGCCGGTCTTGGTTGAATTGTTGGCCAACTGTTTTTCATTTGTTCGTCTCCT (double strand) [PBM_PoxClrB-3'],binds
6,GAGAGGCGAATTGCTTCAGGATCCACCCAAGGAAGCAACTATATAAGAAGAGGTGCCATCACCTCGACTCTGGTGTTCATCATCCATTCCTTCCTCATCTCCTCCACCACCCC (double strand) [PBM2 probe],no binding
7,GGTGAGCAGCAAAAGAAGCAGAAGAGCACCGAACGATCAACGATCACGATCTGACGATGTGAAGAAAAAGAGGGTCAACGGGGAGACTAAGAGTGCGACGGCGGATAGTCAAGACGGAAGCGAACCTCCATAAAACACGATGGCCAGGAGGAAGGGAAAAAAAAAATTAAGGAGCCTTATCCACTTTCACGACTCTCCCCTCCCCGCAATTCCAGGGAAGCCGGTCTTGGTTGAATTGTTGGCCAACTGTTTTTCATTTGTTCGTCTCCT (double strand) [PoxClrB-270],no binding
8,TGGGGGGAGGAGGAGGTGAGCAGCAAAAGAAGCAGAAGAGCACCGAACGATCAACGATCACGATCTGACGATGTGAAGAAAAAGAGGGTCAACGGGGAGACTAAGAGTGCGACGGCGGATAGTCAAGACGGAAGCGAACCTCCATAAAACACGATGGCCAGGAGGAAGGGAAAAAAAAAATTAAGGAGCCTTATCCACTTTCACGACTCTCCCCTCCCCGCAATTCCAGGGAAGCCGGTCTTGGTTGAATTGTTGGCCAACTGTTTTTCATTTGTTCGTCTCCT (double strand) [PoxClrB-284],no binding
9,TGTGATGGATTGGATCAAAGATCAAAAGAGATGATGATCAATTTTGTTCTTTGAGGA (double strand) [PBM_POX05587-6],binds
10,TGTGATGGATTGGATCAAAGATCAAAAGAGATGATGATCAATTTTGTTCTTTGAGGATCT (double strand) [PBM_POX05587-3],binds
11,TTGAGGATCTGATGAAAGGGGGGTGGTGGAGGAGATGAGGAAGGAATGGATGATGAACACCAGAGTCGAGGTGATGGCACCTCTTCTTATATAGTTGCTTCCTTGGGTGGATCCTGAAGCAATTCGCCTCTC (double strand) [PBM_POX05587-3'],binds
